From a protein production outcome set (Wang et al. 2014)

Assay: label from the status in PepcDB records
With “MVDNYEYQVGASLPPDAPSYVVRKADSDFYQALKAGKYCYVFNSRQMGKSSLKVRVMQRLVNEGVACSSIDVSGQGSKDNVTQEQWYTGIVSKIVKDLQIAKPIEFRRTWWRDRHDISPVQRFDEFIEDVLLSSIQRHIIIFVDEIDSTLSLGFASEDFFALIRSCYNKRAENPAYKRLTFALLGVATPGDLIQDKTRTPFNIGEAIELDGFKIHDIEPLAKGLAGKVENPQAVMQEVLAWTGGQPFLTQRVCELLGKALSIEKRDFRSVDENQIIELVKEIIHNQIIDNWEANDKQEHLKTIRDRLLISEEISVALLGLYQQILQQVEMTADSSFEQMRLRLTGLVVQQQGKLRVYNQIYRNVFDLSWVENELGKLRFYADKLRAWVESNYQDNTCLLWGEDLEKARVWADGRKLSDVDYRFLSASVEAELNQKVVKAETRQNQALQEEEKAKQRLTEVERKINIGGGILALFVVGAIVAAIGAISANIERQQAQVVTDLERSSADLLRLRGNVGLDNLVEAMRSVKQLKQLVKNGNQLKDYPTVSPILALHNTLEYNREINQLKDDRRVQKQVFSPDTKIVANISDDGTTKLLNLQTGTITTLKHDKKVNNVAFSPNGQIVATASDDGTAKLWNLQGGKIATFKHNKEVNDVAFSPDGKTVGTASWDTAKLWNLQGGEIATLQYDSLVQNIVFSPDGKNVAIASYDSDVKLWNLQGKEIATIIHNKMTKYLSVVNNLFFSPDGKVVATTSRRDATTKLWNLQGKEIATFKYYPDIGIKNSVFSPNGKVVAIYSDDKTVNLYNLQGNTIATLKHNDKVEDIVFSPDGNTVATVSSYVHDGTVNLWNLKGNIIGTFKHQGLFQDISRLEFSPDGQTIATALLDNTAHLWNLQGKKIAIFTHYSQVLNLAFSPDGRTITTASSDGTAKLWNLQGGNIRILKHNDQINNIVFSPDGKTVATTSYDGTAKLWNLQKGEIVTLKHDGVVNDAVFSPDGKTIATTTSSDKTVKLWNLQGQLIATLKHKYEPDKEVVFSPDSNIIATSDDTAKLWNLQGQLIATLTNEGGVREVIFNPDGKSVLTTSYENAKLWNLEGQEIATFKHKHLGEVVFSPDGHTVATASVYRDSDISGSVKLWNLKGEEIITLQHGSFSDVLFSPDGKTIATVSTLSNTAKLWNLQGREIATLTHDGWINHISFSPDGKTIGIRSGDKTVKLWNLRGQEIATLKHNSSTIVSDPIFSPDGKTIATVSLDRTVRLWTEVRDGSWQQFAEYQSRRVVFSPDNKLIAIEGNYFVQLRRVQSLDSLLARGCNDLKEYLASRPDLRKEICPDNK” the protein production was “failed”.
With “MVEEVQKHSVHTLVFRSLKRTHDMFVADNGKPVPLDEESHKRKMAIKLRNEYGPVLHMPTSKENLKEKGPQNAPDSYPHKQYPANQGQDVEYLVTGTHPYPPGPGVALTADTKIQRMPSESAAQSLAVALPSQTRVDANRTAPAGSEYRHPGASDRSQPTAMNSMIMETSNTKNSALMAKKAPTMPKPQWHPPWKLYRVISGHLGWVRCIAVEPGNQWFVTGSADRTIKIWDLASGKLKLSLTGHISTVRGVIVSTRSPYLFSCGEDKQVKCWDLEYNKVIRHYHGHLSAVYGLDLHPTIDVLVTCSRDSTARIWDVRTKASVHTLSGHTNAVATVRCQAAEPQIITGSHDTTIRLWDLVAGKTRVTLTNHKKSVRAVVLHPLHYTFASGSPDNIKQWKFPDGGFIQNLSGHNAIINTLAVNTDGVLVSGADNGTMHLWDWRTGYNFQRVHAAVQPGSLDSESGIFACAFDRSESRLLTAEADKTIKVYREDETATEETHPVSWKPEIIKRKRF” the protein production was “failed”.
With “MVEGTESATGAASAGDLVEGRHAAPKARAGKGGLARSSLLMALGTVVSRATGLIRQVLQAAALGTGLLASTYNTANTVPTSLYTLLIGGALNAVLVPQLVRARATQPDGGRAYEQRLVTLVLCVLGVGTALAVWAAPGIVALYMRDTPDSHEAFELTVVFARFLLPQIFFYGVFSILGQVLNAREKFGAMMWTPVLNNVVLIGMFGAYLSLMTVPDRVEDITGQQVRFLGVCTTAGIALQALALIPFVRAAGFRFRPRFDWRGTGLGKSVHAAKWTLLLVLANQVALTVVTNYANAVDQELPKAGAGYTAYTYAQTIWMLPQSIVTVSLVTALLPRMSRAVAEDRLPDLRADLSRVLRISGVVIVPAGFLFLALGPGIATLLFAHGAADAASAQPLGHMLQAFGLGLIPFSAQYLLLRGFYAFEDTRTPFFMAVWIAVVNIALATACHLLLPARWAVTGMAAGYTLSYLAGLLLTARLLRKRLGGRRLDDGELRRTYGKLLCASAVAAGAGWAAARATATTTPTALALAAGAVTMALVYVALARLLKVSELRLPGRG” the protein production was “failed”.
For “MVEHATSETDLDRIVRMFDGANLIVHGFDGVIQRWTSGCEQLYGWSASEAVGNVVHDLLDTQFPAGVEELRTEVRDKGFWTGQVGHRRKDGVRLAIVTRWTVLELGDPDTLIIQSNNDVTLMQQVGDELRERQAHLQSILATVPDAMIVIDDKGCIASFSTAAEKLFGYSADEAIGQNVSMLMPSPDREAHDGYLDSYIRTGRRRIIGYGRVVVGLRKHGTTFPMELSVGEAVAGGKRTFTGFVRDLTSRHRIEAELRQSQKMEAVGQLTGGLAHDFNNLLAVIIGNLEMLEARLAEPGQLSLLREAQSAADDGARLTSQLLAFGRRQALAPTVLDVGALLGEFSDLVQRTLGDSVELRTIIPGRRLSAMADKAQLQSALLNLSINARDAMPAGGRLTIEISGVEIDADYVGMYPAIRPGRYVLISVTDTGTGMTSEVMERAFEPFFTTKPTGSGTGLGLSMVYGFAKQSAGHLQLYSEPGEGTTVRLFLPRADGGRDSHPDEQQVKDAPSPGTETILVVEDDARVRRVTISRLQTLGYSVIEATNGIDALKELEAGHDVALLFSDVAMPGMNGDELARKVRERWPRVKILLTSGFSEPHAAEKEIEAGAGWLKKPYTASEMSTRLRLLLDARHGSDSA”, the protein production was “failed”.
For “MVEPDRVFFVRVMREWISRFTGKIIENFEIHLSQPMGFAGDIMSLTEFATSRQVKNLVLDFSDPIQRNLSQAQQIIRDGLLRCRYPQKNELDVLQDCDDPMALHVSMKTRHLVMKTNMHANDFVGISIFLNSCPELESLTFDLVTSSRFVRAPSPLVIDPVSHWLTSKSYECLEKTLKVVKITKFRGSSNELHMLQYLLRTGCVMERVDLYEAEGLNHNQKRWVLAGVEEVQQNFKRASRHLRITLHNA”, the protein production was “not failed”.
In the case of “MVERTAVFPAGRHSLYAEHRYSAAIRSGDLLFVSGQVGSREDGTPEPDFQQQVRLAFDNLHATLAAAGCTFDDIIDVTSFHTDPENQFEDIMTVKNEIFSAPPYPNWTAVGVTWLAGFDFEIKVIARIPEQ”, the protein production is reported as “not failed”.
With “MVEVSQFKDAMAQLASAVHIVTTSGETGQHGFTASAVCSVTDSPPTLLVCINSNARAYEHFVKNRVLMVNTLTAEQSSLSNIFASPLSQEERFSNASWTTLTTGSPMLQDALINFDCEITEIKHVGTHDILICKIVDIHQSNAKNALVYRNRVYHSV” the protein production was “not failed”.
With “MVFLVPFDGSPLADAALNRAVTYAKALDEDVVAVAFIPTGADYAERRRRVDPTEDFAAETAADDLRRKIEEATDDSELRYDDVSAHSTSELSTTIRQTARDVDANVVFLGSDDTEDIVVPIGEVTDGEDYDVHIVRRT” the protein production was “failed”.
With “MVGFKPTDVPPTAAVKFIGAGTAACIADLFTFPLDTAKVRLQIQGESKAVHMKTASYKGVFGTISTMVKMEGPKSLYNGLAAGLQRQMSFASVRIGLYDSVKQFYTKGSEHAGIGSRLAAGCTTGAMAVAVAQPTDVVKVRFQAQANSSANRRYKGTMDAYRTIAREEGMRGLWKGTVPNITRNAIVNCTELVTYDLIKDSILKANIMTDNLPCHFTSAFGAGFCTTVIASPVDVVKTRYMNSAKGQYTSALNCALTMFRKEGPRAFYKGFMPSFLRLGSWNVVMFVTYEQLKRAMMSAQRSREAPF” the protein production was “failed”.
With “MVGGVEELSIEQLASSISTYKEQLEQNFVCGLEFRIGEEKLNVRQLLSEDPRNSEYADMEKELKEVIALTEEVLATAKQNEISLSDAGVSAEATPGSPDLEGAWEKTGLRNDPIHEGKFPVGTKVQAVFSDDGEWYDATIEAHTANGYFVAYDEWGNKEEVDPDNVRPIEQNAIVEAERLAQATKNALKRKIEKAASSDYQTKTLPAKLKIDPNDPEDVKIAKRKKIHAFKSKARFEQLEVVQNKKQNDWQQFQTTKAKTKKVGFFTGRKKESIFKSPEDPFGKVGVTGSGKGLTDFQKREKHLHLKSGNAEGTDE” the protein production was “failed”.
With “MVGISFVFDKISNGISSYKSIKGIEQAHKSKKIASDLREYGYKLLDCRKLEAAKDAFEEALRFDPTNPEIQMGLFKSAVFQPILTKNPTYYDAEIALKKIETILKKNPNDRHAYYFMGEIYRDSDPKKASNYYKKVISLDPKSYLTGLAYNSLAYIAATEKDNDLAFYYMKKAANLCEMNPTVLNNLSYQHLIRGQYEITIEKLTRLIKHDPYKIIVFWNIINSLRMIGKFQEAYIYNHMLIECIEDETTSYHAANLGAFFFQTDPSGDGVFFKEISGKKFYSYCSMALTCYVLDLTEEANMYLEKAQKLDCFSKASAIKFLYYNIECIQKNNVKLIYKLDDIKERLIKLDLFTNVSITVARNETQYINMAKV” the protein production was “failed”.
For “MVGKMNEWELALKNKDCKKLLELFDDYFDEVSEDKLEEELKRVGEVAVECEDFDLIHEIAHIYEHLGEAEKGIDLYKRIVEKRKGRNTEDYAEALYYLADAYDHFGMPEEALKTYEELLELEKRIGNKREIGLTLANLAIIKDELGNVEEAIKLMEEARKIFEELKDENNYLISLIDLAHFKYELGEYEEAMKLIREVLRNPVDKEIEVNARLVESEIYAGERKYKEAAISLRNALQRSEDDEELFSLVFDSLTEFLEGLFNESRYRELVEVSPLFAELFEDDTKYFFNAIKGLAEWRLGNEKAREEFEENYKNIQNEELKALLDEWRRPKLSLGLNL”, the protein production was “failed”.
For “MVGTLYDKMYENFVEEVDAVDNGISQWAEGEPRYALTTTLSARVARLNPTWNHPDQDTEAGFKRAMDLVQEEFLQRLDFYQHSWLPARALVEEALAQRFQVDPSGEIVELAKGACPWKEHLYHLESGLSPPVAIFFVIYTDQAGQWRIQCVPKEPHSFQSRLPLPEPWRGLRDEALDQVSGIPGCIFVHASGFIGGHRTREGALSMARATLAQRSYLPQIS”, the protein production was “failed”.
In the case of “MVHHDGTLQALITAYQKTPAFTDLAEATRKGYIRHIRQIEADFGDMPVQALADPRVRGEFLDWRDRLAQKSKRSADYAFSVLARILSWAHDRRKIPVNPCEKPGRLEHHHHHH”, the protein production is reported as “failed”.
With “MVIASIVIYKHSYSDLKQTLDSLLAVSSINKIVLVDNDHSDWASTYHHPKITYLKSDGNFGFGYGHNYAIKRFAAQSDYFLICNPDIVFESSEFEKLLNFIQTREEALFLPKIVYENGENQYGARLLPSPFNLFARRFSPKYAEQLDEDYLLKNFDLSKPIFAPYLHGCFMLFRSKALLELGGFDERFFMYMEDVDLSRRCAEKFGNIYYPLAQVIHLHEQGSYKNKTLLKAHLKSAWQYFCKWGWLYDAQRSSLNGKCLKQRNG” the protein production was “failed”.
For “MVIFNYILVCIIFGTTFLTIKIGIEAGAPPLFSAGIRFFLAGIILMIIFKLKRKEIMPHIFSKRIMYAGFCLTFMTFASLYWSEQYISSGLAAVLSATGPMMILLIQAKRNREKLQKEQLVALVIALIGVIFVSLPGMHQQVSFIWSIACIVLVIGELFYGIGSIRSKEILSDLSNVSPFLINGIQMFYGGILLLIASIIVEQPNVTVLTSWSVQWPILYLIFIGSIGGHGLYYWLLSKTNPVFPSTWLYVSPLIAIIVGYIILGEPLNPTMGMGACLILIGVFLANRSTLRTYFKKGRLLEKEM”, the protein production was “failed”.
With “MVITLSRLYVHPVKSMRGLQLSHAQVSSSGLAFDRVFMITEPDGTFITARQYPKMVMFTPALMSDGLYLTAPDGESASIRFNDFLANAEPTEVWGNHFTALIAPAAINNWLSGYFQREVQLRWLGPELTRRVKPMPEIPLSFADGFPYLLINEASFKELQQRCPGSIKLEQFRPNLLVTGASAFAEDSWQVIRVGDITFDLVKPCSRCVLTTVSVERGRKHPTGEPLQTLQTFRTAENGDIDFGQNMVARNSGIIRVGDEVEVLSTKPPRPYGAGAVVESLAAPEDKSKAVAIEYNGIRFNGNNQQVLLEQLEQQNIRIPYSCRAGICGSCRITLINGEVAPLKQSAIGNDGTILCCSCIPKGDITLSGK” the protein production was “failed”.
